Assay results taken from patent publication US20240398973A1, “ENGINEERED ANTIBODY COMPOUNDS AND CONJUGATES THEREOF” (Eli Lilly and Company, priority 2017, published 2024).
Values joined by “and” are separate entries in the source; they are usually repeats but may differ in a detail not shown here. Equal entries are not always repeated.

Experiments:
[1] = test system: A549 human lung carcinoma cells; assay: PMN-mediated killing of A549 tumor cells (xCelligence); type: cell-based; conditions: 2 hours, mean ± SD, n=4
Experimental: (§1) Antibody-targeted killing of tumor cells by PMNs is measured using the xCelligence Real Time Cell Analysis system (ACEA Biosciences). This system monitors cell viability in real time by recording electrical impedance between sensors on the growth surface of culture plates. It reports a normalized cell index (NCI) that is normalized to control cells in parallel wells and allows one to control for relative culture viability. NCIs are measured continuously at 15 minute intervals for 24 hours following incubation of tumor cultures with targeted antibodies and addition of human primary PMNs at a 10:1 PMN to tumor cell ratio. Prior to seeding with tumor cells, xCelligence 96-well E-Plates are calibrated for background signal. Each well receives 50 μl of culture medium (RPMI+10% FBS+antibiotics) and the E-plate is equilibrated to 37° C. in a humidified incubator containing the xCelligence plate reader.
(§2) After equilibration, E-Plate well variations in background are measured. Cultured tumor cell lines are dissociated, counted and diluted to a final density of 1×10^5 cells/ml in culture medium and 100 μl of diluted tumor cells were plated into E-Plate wells. The E-Plate is returned to the xCelligence reader and cell indices are measured in 15 minute intervals overnight to establish baseline.
(§3) The next day, PMNs are isolated from fresh human blood samples and brought to a final density of 2×10^6 cells/ml in culture medium. Following overnight recording, the E-Plate is removed from the xCelligence reader and 22 μl of 10× antibody solution or buffer is added to designated wells. After 15 minutes, 50 μl of diluted PMNs (1×10^5 total cells) or buffer was added to designated wells. Immediately after PMN addition, the E-Plate is returned to the xCelligence reader and cell indices were measured for up to 72 hours. After completion of the experiment, cell indices are normalized (NCI) to the time point immediately preceding the addition of antibodies.
(§4) Percent NCI is defined as ((NCI of sample)/(NCI of Tumor Cells Alone)×100). For non-adherent tumor cells (Daudi cells), the xCelligence Immunotherapy Kit-B Cell Killing Assay (ACEA #8100004) is used to tether the tumor cells to E-Plate wells according to manufacturer protocols. Following tethering and background acquisition, the protocols are performed as indicated above.
Adherent MET(+) A549 human lung carcinoma cells are plated for approximately 24 hours, then incubated with Emibetuzumab-G4-fMLFK-HC-124C-375C or emibetuzumab-G4-UC-HC-124C-375C and exposed to primary human PMNs at 10:1 effector to target cell ratio.
Percent NCI values represent relative viability of A549 cells following 2 hours of exposure to the stated conditions. Values are given as mean percentage normalized to “+PMN” control±SD; n=4 for all conditions. Statistical significance was determined by one-way ANOVA followed by post-hoc Dunnett's multiple comparisons test vs “+PMN”. NCI, normalized cell index; PMN, primary human polymorphonuclear neutrophils; ns, not significant.

human primary PMNs = assay: PMN reactive oxygen species (ROS) production, luminol-amplified chemiluminescence; type: cell-based; conditions: for PMN ROS production: relative to 1000 nM fMLF, AUC 5 minutes (Tables 9, 11)
[2] = test system: Daudi B lymphoblast cells; assay: PMN-mediated killing of DAUDI tumor cells (xCelligence); type: cell-based, human; conditions: 6 hours, mean ± SD, n=4, normalized to Buffer control
Experimental: as §1, §2, §3, §4
Non-adherent, CD20+ Daudi B lymphoblast cells are immobilized with xCelligence Immunotherapy Kit (ACEA #8100004) to tether the tumor cells to E-Plate wells according to manufacturer protocols, and are exposed to conditions shown below in Table 16. Percent NCI values represent relative viability of DAUDI cells following 6 hours of exposure to the stated conditions. Values are given as mean percentage normalized to “Buffer control” ±SD; n=4 for all conditions. Statistical significance was determined by one-way ANOVA followed by post-hoc Dunnett's multiple comparisons test vs “+PMN”.

B1: Emibetuzumab-G4(PAA)-UC-HC-124C-375C: unconjugated emibetuzumab IgG4(PAA) with HC 124C and 375C; HC SEQ ID NO:4, LC SEQ ID NO:5 (antibody)
heavy: QVQLVQSGAEVKKPGASVKVSCKASGYTFTDYYMHWVRQAPGQGLEWMGRVNPNRRGTTYNQKFEGRVTMTTDTSTSTAYMELRSLRSDDTAVYYCARANWLDYWGQGTTVTVSSASTKGPCVFPLAPCSRSTSESTAALGCLVKDYFPEPVTVSWNSGALTSGVHTFPAVLQSSGLYSLSSVVTVPSSSLGTKTYTCNVDHKPSNTKVDKRVESKYGPPCPPCPAPEAAGGPSVFLFPPKPKDTLMISRTPEVTCVVVDVSQEDPEVQFNWYVDGVEVHNAKTKPREEQFNSTYRVVSVLTVLHQDWLNGKEYKCKVSNKGLPSSIEKTISKAKGQPREPQVYTLPPSQEEMTKNQVSLTCLVKGFYPCDIAVEWESNGQPENNYKTTPPVLDSDGSFFLYSRLTVDKSRWQEGNVFSCSVMHEALHNHYTQKSLSLSLG
light: DIQMTQSPSSLSASVGDRVTITCSVSSSVSSIYLHWYQQKPGKAPKLLIYSTSNLASGVPSRFSGSGSGTDFTLTISSLQPEDFATYYCQVYSGYPLTFGGGTKVEIKRTVAAPSVFIFPPSDEQLKSGTASVVCLLNNFYPREAKVQWKVDNALQSGNSQESVTEQDSKDSTYSLSSTLTLSKADYEKHKVYACEVTHQGLSSPVTKSFNRGEC
modifications: SITE 122 THIOETH - position 122 is cysteine residue modified by thioether bond formation to maleimide-polyethylene glycol (PEG) linker; SITE 370 THIOETH - position 370 is cysteine residue modified by thioether bond formation to maleimide-polyethylene glycol (PEG) linker
In the case of B1, the “Percent NCI” value ([1]; A549, 3 nM + PMN) is reported as 102.3 ± 1.7%, the “Percent NCI” value ([1]; A549, 3 nM without PMN) is reported as 101.3 ± 0.7% and the “Percent NCI” value ([1]; A549, 10 nM + PMN) is reported as 102.5 ± 1.9%. For the same molecule, the “Percent NCI” value ([1]; A549, 10 nM + PMN, listed as emibetuzumab-G4-UC-HC-124C-375C) was 102.5±1.9%, the “Percent NCI” value ([1]; A549, 10 nM without PMN) was 100.8 ± 1% and the “Percent NCI” value ([1]; A549, 30 nM + PMN) was 102.7 ± 1.5%. The “Percent NCI” value ([1]; A549, 30 nM without PMN) was 100.1 ± 0.9%, the “Percent NCI” value ([1]; A549, 100 nM + PMN) was 102.9 ± 1.5% and the “Percent NCI” value ([1]; A549, 100 nM without PMN) was 100.8 ± 1.4%. For the same molecule, the “Percent NCI” value ([1]; A549, 300 nM + PMN) was 102.3 ± 1.8% and the “Percent NCI” value ([1]; A549, 300 nM without PMN) was 102.8 ± 4.9%.

B2: AME133-G1(IQ)-UC-HC-124C-378C: unconjugated AME133 (anti-CD20) IgG1(IQ) with HC 124C and 378C; HC SEQ ID NO:8, LC SEQ ID NO:9 (antibody)
heavy: EVQLVQSGAEVKKPGESLKISCKGSGRTFTSYNMHWVRQMPGKGLEWMGAIYPLTGDTSYNQKSKLQVTISADKSISTAYLQWSSLKASDTAMYYCARSTYVGGDWQFDVWGKGTTVTVSSASTKGPCVFPLAPSSKSTSGGTAALGCLVKDYFPEPVTVSWNSGALTSGVHTFPAVLQSSGLYSLSSVVTVPSSSLGTQTYICNVNHKPSNTKVDKKVEPKSCDKTHTCPPCPAPELLGGPSVFLFPPKIKDTLMISRTPEVTCVVVDVSHEDPEVKFNWYVDGVEVHNAKTKPREEQYNSTYRVVSVLTVLHQDWLNGKEYKCKVSNKALPAPIEKTISKQKGQPREPQVYTLPPSRDELTKNQVSLTCLVKGFYPSDICVEWESNGQPENNYKTTPPVLDSDGSFFLYSKLTVDKSRWQQGNVFSCSVMHEALHNHYTQKSLSLSPG
light: EIVLTQSPGTLSLSPGERATLSCRASSSVPYIHWYQQKPGQAPRLLIYATSALASGIPDRFSGSGSGTDFTLTISRLEPEDFAVYYCQQWLSNPPTFGQGTKLEIKRTVAAPSVFIFPPSDEQLKSGTASVVCLLNNFYPREAKVQWKVDNALQSGNSQESVTEQDSKDSTYSLSSTLTLSKADYEKHKVYACEVTHQGLSSPVTKSFNRGEC
modifications: SITE 128 THIOETH - position 128 is cysteine residue modified by thioether bond formation to maleimide-polyethylene glycol (PEG) linker; SITE 382 THIOETH - position 382 is cysteine residue modified by thioether bond formation to maleimide-polyethylene glycol (PEG) linker
With B2 the “PMN ROS production” value (human primary PMNs; 1 nM) was 10.3 percentage, the “PMN ROS production” value (human primary PMNs; 3 nM) was 10.6 percentage and the “PMN ROS production” value (human primary PMNs; 10 nM) was 10.6 percentage. For the same molecule, the “PMN ROS production” value (human primary PMNs; 30 nM) was 10.5 percentage, the “PMN ROS production” value (human primary PMNs; 100 nM) was 10.3 percentage and the “PMN ROS production, Exposure: Buffer” value (human primary PMNs; 300 nM, Buffer, relative to fMLF, AUC 5 minutes (Table 12a)) was 25.3 percentage. For the same molecule, the “PMN ROS production, Exposure: Cyclosporin H” value (human primary PMNs; 300 nM, PMNs pre-incubated with 1 uM Cyclosporin H for 30 minutes, relative to fMLF (Table 12a)) was 19.7 percentage, the “PMN ROS production” value (human primary PMNs; 300 nM) was 11.4 percentage and the “PMN ROS production” value (human primary PMNs; 1000 nM) was 13.9 percentage. The “Percent NCI” value ([2]; 10 nM + PMN) was 58.7 ± 13.2%, the “Percent NCI” value ([2]; 10 nM without PMN) was 97.7 ± 1.4% and the “Percent NCI” value ([2]; 30 nM + PMN) was 93.4 ± 22.4%. For the same molecule, the “Percent NCI” value ([2]; 30 nM without PMN, listed as AME133-G1(IQ)-UC-124C-378C) was 97.3±1.2% and 97.3 ± 0.6%, the “Percent NCI” value ([2]; 100 nM + PMN) was 114 ± 6.9% and the “Percent NCI” value ([2]; 100 nM without PMN) was 90.9 ± 0.6%. For the same molecule, the “Percent NCI” value ([2]; 300 nM + PMN) was 113.2 ± 7.2% and the “Percent NCI” value ([2]; 300 nM without PMN) was 87.7 ± 1.5%.
